In patent US20180355059A1 (PHARMAEXPLORER, published 2018):

B1: 103C11E8, chimeric anti-PCSK9 mAb purified from hybridoma (antibody, V domains shown)
VH: QVQLQESGPGLVKPSGTLSLTCAVSGGSISSSNWWSWVRQPPGKGLEWIGEIYHSGSTNYNPSLKSRVTISVDKSKNQFSLKLSSVTAADTAVYYCARGIAVAGTDVMDAWGQGASVTVSS
VL: EIVLTQSPATLSLSPGERATLSCRASQSVSSYLVWYQQKSGQAPRLLIYGTSNRATGIPARFSGSGSGTDFTLTISSLEPEDFALYYCQQRGNWMYTFGQGTKLEIK
notes: From Harbour H2L2 mice: human variable regions, rat constant regions
B2: 96F8C6, chimeric anti-PCSK9 mAb purified from hybridoma (antibody, V domains shown)
VH: EVQLVESGGGLVQPGGSLRLSCAASGITFSSYWMSWVRQAPGKGLEWVANIKQDGSEKYYVDSVKGRFTISRDIAKNSLYLQMNSLRAEDTAVYYCARDRGTYYYGSGSYNYYYYGMDVWGQGTTVTVSS
VL: not shown
notes: as for B1

Legend:
[1] = biological target: T1, recombinant human PCSK9 protein, His-tagged (Immunogen A, hPCSK9-His) (human, UniProt Q8NBP7 31-692, limits assumed, biotin-labelled in the ELISA and blocking assays (Biotin labeling kit)); experiment: blocking ELISA, biotin-hPCSK9-His on coated LDLR ECD-His; antibody 40 nM
T1 construct: also called human PCSK9-His; recombinant hPCSK9-His; not shown: His tag

[2] = biological target: T1, recombinant human PCSK9 protein, …; experiment: ELISA, biotin-hPCSK9-His on streptavidin plate; antibody 0.00067 nM
Experimental: (§1) The next day, the plates were washed twice with wash buffer [0.01% (v/v) Tween 20], then blocked with blocking buffer [0.01% (v/v) 0.1% BSA (w/w) Tween 20] at room temperature for 2 hours. […] Unbound PCSK9 proteins were removed by washing the plate three times with wash buffer [0.01% (v/v) Tween 20]. […] The plates were washed twice with wash buffer [0.01% (v/v) Tween 20], and 200 uL HRP-conjugated secondary antibody (Sigma) was added to each well and incubated for 2 hours at 37° C. After the plates were washed three times with wash buffer, 100 ul TMB substrate were added to each well and incubated for 30 minutes at room temperature. 100 ul stop solution (0.1N HCl) were added to each well to stop the reaction.

[3] = biological target: T1, recombinant human PCSK9 protein, …; experiment: ELISA, biotin-hPCSK9-His on streptavidin plate; antibody 6.67 nM
Experimental: as §1

[4] = biological target: T1, recombinant human PCSK9 protein, …; experiment: ELISA, biotin-hPCSK9-His on streptavidin plate; antibody 66.67 nM
Experimental: as §1

[5] = biological target: T1, recombinant human PCSK9 protein, …; experiment: blocking ELISA, biotin-hPCSK9-His on coated LDLR ECD-His; antibody 0.01 nM
Experimental: (§2) Purified LDLR^ECD-His was diluted with PBS to a final concentration of 1.0 ug/ml, and 100 uL of diluted LDLR^ECD-His were added to each well of 96-well plate that was then sealed with plastic film and incubated at 4° C. overnight. The plate was washed twice with wash buffer [PBS+0.01% (v/v) Tween 20] and incubated with blocking buffer [PBS+0.01% (v/v) BSA+1% Tween20 (w/w)] at room temperature for 2 hours. […] The plate was washed three times with wash buffer [0.01% (v/v) Tween 20]. 100 uL HRP-conjugated streptavidin (Sigma) were then added to each well and incubated at 37° C. for 1 hour. The plate was then washed three times with wash buffer, and 100 uL TMB substrate were added to each well. After 15 minutes of incubation at room temperature, the reaction was stopped by adding 50 uL stop solution (0.1N HCl).

[6] = biological target: T1, recombinant human PCSK9 protein, …; experiment: blocking ELISA, biotin-hPCSK9-His on coated LDLR ECD-His; antibody 0.06 nM
Experimental: as §2

[7] = biological target: T1, recombinant human PCSK9 protein, …; experiment: ELISA, biotin-hPCSK9-His on streptavidin plate; antibody 0.67 nM
Experimental: as §1

[8] = biological target: T1, recombinant human PCSK9 protein, …; experiment: ELISA, biotin-hPCSK9-His on streptavidin plate; antibody 0.067 nM
Experimental: as §1

[9] = biological target: T1, recombinant human PCSK9 protein, …; experiment: ELISA, biotin-hPCSK9-His on streptavidin plate; antibody 0.000067 nM
Experimental: as §1

[10] = biological target: T1, recombinant human PCSK9 protein, …; experiment: blocking ELISA, biotin-hPCSK9-His on coated LDLR ECD-His; antibody 200 nM
Experimental: as §2

[11] = biological target: T1, recombinant human PCSK9 protein, …; experiment: ELISA, biotin-hPCSK9-His on streptavidin plate; antibody 0 nM (blank)
Experimental: as §1

[12] = biological target: T1, recombinant human PCSK9 protein, …; experiment: blocking ELISA, biotin-hPCSK9-His on coated LDLR ECD-His; antibody 8 nM
Experimental: as §2

[13] = biological target: T1, recombinant human PCSK9 protein, …; experiment: blocking ELISA, biotin-hPCSK9-His on coated LDLR ECD-His; antibody 0.32 nM
Experimental: as §2

[14] = biological target: T1, recombinant human PCSK9 protein, …; experiment: ELISA, biotin-hPCSK9-His on streptavidin plate; antibody 0.0067 nM
Experimental: as §1

[15] = biological target: T2, recombinant cyno monkey PCSK9 protein (cyno monkey, UniProt A8T666 31-692 (rhesus entry), limits assumed, biotin-labelled in the ELISA (Biotin labeling kit)); experiment: ELISA, biotin-cyno PCSK9 on streptavidin plate; antibody 0.67 nM
T2 construct: also called cyno PCSK9; Cyno Monkey PCSK9-His
T2 sequence (A8T666 31-692 limits assumed): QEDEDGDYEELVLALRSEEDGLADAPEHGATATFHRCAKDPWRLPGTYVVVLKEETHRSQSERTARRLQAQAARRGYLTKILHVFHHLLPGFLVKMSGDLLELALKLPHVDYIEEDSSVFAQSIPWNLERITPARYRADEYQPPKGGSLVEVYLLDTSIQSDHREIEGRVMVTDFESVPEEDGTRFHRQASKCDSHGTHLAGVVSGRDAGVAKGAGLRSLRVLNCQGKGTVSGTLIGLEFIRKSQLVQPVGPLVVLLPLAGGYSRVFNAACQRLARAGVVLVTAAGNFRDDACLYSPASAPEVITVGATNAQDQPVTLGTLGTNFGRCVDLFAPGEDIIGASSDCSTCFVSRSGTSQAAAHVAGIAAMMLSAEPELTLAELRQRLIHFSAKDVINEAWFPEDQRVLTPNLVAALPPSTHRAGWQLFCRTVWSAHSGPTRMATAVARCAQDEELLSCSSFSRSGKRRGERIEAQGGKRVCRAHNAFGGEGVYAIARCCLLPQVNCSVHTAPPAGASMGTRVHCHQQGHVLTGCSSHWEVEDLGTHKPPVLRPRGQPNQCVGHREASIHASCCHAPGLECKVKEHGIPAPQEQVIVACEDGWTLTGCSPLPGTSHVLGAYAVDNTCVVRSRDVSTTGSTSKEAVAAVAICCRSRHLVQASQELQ
Experimental: as §1

[16] = biological target: T2, recombinant cyno monkey PCSK9 protein; experiment: ELISA, biotin-cyno PCSK9 on streptavidin plate; antibody 0.067 nM
Experimental: as §1

[17] = biological target: T2, recombinant cyno monkey PCSK9 protein; experiment: ELISA, biotin-cyno PCSK9 on streptavidin plate; antibody 0.0067 nM
Experimental: as §1

[18] = biological target: T2, recombinant cyno monkey PCSK9 protein; experiment: ELISA, biotin-cyno PCSK9 on streptavidin plate; antibody 6.67 nM
Experimental: as §1

[19] = biological target: T1, recombinant human PCSK9 protein, …; experiment: blocking ELISA, biotin-hPCSK9-His on coated LDLR ECD-His; antibody 1.6 nM
Experimental: as §2

[20] = biological target: T2, recombinant cyno monkey PCSK9 protein; experiment: ELISA, biotin-cyno PCSK9 on streptavidin plate; antibody 0.00067 nM
Experimental: as §1

[21] = biological target: T2, recombinant cyno monkey PCSK9 protein; experiment: ELISA, biotin-cyno PCSK9 on streptavidin plate; antibody 0 nM (blank)
Experimental: as §1

[22] = biological target: T2, recombinant cyno monkey PCSK9 protein; experiment: ELISA, biotin-cyno PCSK9 on streptavidin plate; antibody 66.67 nM
Experimental: as §1

Binder | OD450 nm (PCSK9 bound to LDLR) [1] | OD450 nm [2] | OD450 nm [3] | OD450 nm [4] | OD450 nm (PCSK9 bound to LDLR) [5] | OD450 nm (PCSK9 bound to LDLR) [6] | OD450 nm [7] | OD450 nm [8] | OD450 nm [9] | OD450 nm (PCSK9 bound to LDLR) [10] | OD450 nm [11] | OD450 nm (PCSK9 bound to LDLR) [12] | OD450 nm (PCSK9 bound to LDLR) [13] | OD450 nm [14] | other results
B1 | 0.77 OD450 nm | 0.15 OD450 nm | 2.71 OD450 nm | 2.72 OD450 nm | 0.97 OD450 nm | 0.96 OD450 nm | 2.41 OD450 nm | 0.68 OD450 nm | 0.11 OD450 nm | 0.54 OD450 nm | 0.14 OD450 nm | 0.87 OD450 nm | 0.92 OD450 nm | 0.21 OD450 nm | –
B2 | 0.45 OD450 nm | 0.18 OD450 nm | 2.89 OD450 nm | 2.86 OD450 nm | 1.19 OD450 nm | 1.25 OD450 nm | 2.73 OD450 nm | 1 OD450 nm | 0.17 OD450 nm | 0.63 OD450 nm | 0.2 OD450 nm | 0.53 OD450 nm | 1.16 OD450 nm | 0.3 OD450 nm | OD450 nm [15]: 2.26 OD450 nm; OD450 nm [16]: 0.77 OD450 nm; OD450 nm [17]: 0.25 OD450 nm; OD450 nm [18]: 2.58 OD450 nm; OD450 nm (PCSK9 bound to LDLR) [19]: 0.97 OD450 nm; OD450 nm [20]: 0.23 OD450 nm; OD450 nm [21]: 0.25 OD450 nm; OD450 nm [22]: 2.87 OD450 nm
